The target in experiment [1] is rHuman P-Cadherin/Fc Chimera, CF (R&D Systems Cat#861-PC) (human) (UniProt P22223). Briefly: MSD ECL multi-spot plate; Fab 70 nM; blank spot 635.
The target is the same in experiment [2]. Briefly: MSD ECL multi-spot plate; Fab 17.5 nM; blank spot 304.
For experiment [3] the target is unchanged. Nature of the experiment: MSD ECL multi-spot plate; Fab 280 nM; blank spot 1691.
Experiment [4] shares this target. Briefly: MSD ECL multi-spot plate; Fab 4.375 nM; blank spot 305.
The target of experiment [5] is rHuman CD44/Fc Chimera, CF (R&D Systems Cat#3660-CD) (human) (UniProt P16070). Nature of the experiment: MSD ECL multi-spot assay, antigen spotted on plate, Fab 0.28 uM; blank spot 1773.
Experiment [6] addresses rHuman ErbB2/Fc Chimera, CF (R&D Systems Cat#1129-ER) (human) (UniProt P04626). The experiment is described as above.
Experiment [7] deals with rHuman HGF R/c-MET/Fc Chimera, CF (R&D Systems Cat#358-MT/CF) (human) (UniProt P08581). The experiment is described as above.
Experiment [8] addresses rHuman IGF-1 sR (IGF-1 sR), CF (R&D Systems Cat#391-GR) (human) (UniProt P08069). Described as above.
Experiment [9] concerns the target rHuman Notch-1/Fc Chimera, CF (R&D Systems Cat#3647-TK) (human) (UniProt P46531). The experiment is described as above.
In experiment [10] the target is rHuman CD44/Fc Chimera, CF (R&D Systems Cat#3660-CD) (human) (UniProt P16070). Briefly: MSD ECL multi-spot plate; Fab 230 nM; blank spot 1656.
Experiment [11] has as its target rHuman EGF R/Fc Chimera, CF (R&D Systems Cat#344-ER) (human) (UniProt P00533). The experiment is described as above.
For experiment [12], the target named is rHuman ErbB2/Fc Chimera, CF (R&D Systems Cat#1129-ER) (human) (UniProt P04626). The experiment is described as above.
Experiment [13] has as its target rHuman Erythropoietin R/Fc Chimera, CF (R&D Systems Cat#963-ER) (human) (UniProt P19235). The experiment is described as above.
The target in experiment [14] is rHuman HGF R/c-MET/Fc Chimera, CF (R&D Systems Cat#358-MT/CF) (human) (UniProt P08581). The description is as above.
The target in experiment [15] is rHuman IGF-1 sR (IGF-1 sR), CF (R&D Systems Cat#391-GR) (human) (UniProt P08069). Described as above.
Experiment [16] concerns the target rHuman CD44/Fc Chimera, CF (R&D Systems Cat#3660-CD) (human) (UniProt P16070). Briefly: MSD ECL multi-spot plate; Fab 57.5 nM; blank spot 954.
Experiment [17] has as its target rHuman EGF R/Fc Chimera, CF (R&D Systems Cat#344-ER) (human) (UniProt P00533). Described as above.
The target in experiment [18] is rHuman ErbB2/Fc Chimera, CF (R&D Systems Cat#1129-ER) (human) (UniProt P04626). The description is as above.
The target of experiment [19] is rHuman Erythropoietin R/Fc Chimera, CF (R&D Systems Cat#963-ER) (human) (UniProt P19235). Described as above.
For experiment [20], the target named is rHuman HGF R/c-MET/Fc Chimera, CF (R&D Systems Cat#358-MT/CF) (human) (UniProt P08581). Described as above.
Experiment [21] concerns the target rHuman IGF-1 sR (IGF-1 sR), CF (R&D Systems Cat#391-GR) (human) (UniProt P08069). The description is as above.
In experiment [22] the target is rHuman CD44/Fc Chimera, CF (R&D Systems Cat#3660-CD) (human) (UniProt P16070). Nature of the experiment: MSD ECL multi-spot plate; Fab 920 nM; blank spot 4082.
Experiment [23] concerns the target rHuman EGF R/Fc Chimera, CF (R&D Systems Cat#344-ER) (human) (UniProt P00533). Described as above.
Experiment [24] has as its target rHuman ErbB2/Fc Chimera, CF (R&D Systems Cat#1129-ER) (human) (UniProt P04626). The description is as above.
In experiment [25] the target is rHuman Erythropoietin R/Fc Chimera, CF (R&D Systems Cat#963-ER) (human) (UniProt P19235). Described as above.
Experiment [26] addresses rHuman HGF R/c-MET/Fc Chimera, CF (R&D Systems Cat#358-MT/CF) (human) (UniProt P08581). The experiment is described as above.
Experiment [27] concerns the target rHuman IGF-1 sR (IGF-1 sR), CF (R&D Systems Cat#391-GR) (human) (UniProt P08069). The experiment is described as above.
Experiment [28] deals with rHuman CD44/Fc Chimera, CF (R&D Systems Cat#3660-CD) (human) (UniProt P16070). Briefly: MSD ECL multi-spot plate; Fab 14.375 nM; blank spot 738.
For experiment [29], the target named is rHuman EGF R/Fc Chimera, CF (R&D Systems Cat#344-ER) (human) (UniProt P00533). The description is as above.
Experiment [30] deals with rHuman ErbB2/Fc Chimera, CF (R&D Systems Cat#1129-ER) (human) (UniProt P04626). The experiment is described as above.
For experiment [31], the target named is rHuman Erythropoietin R/Fc Chimera, CF (R&D Systems Cat#963-ER) (human) (UniProt P19235). The experiment is described as above.
Experiment [32] deals with rHuman HGF R/c-MET/Fc Chimera, CF (R&D Systems Cat#358-MT/CF) (human) (UniProt P08581). The experiment is described as above.
In experiment [33] the target is rHuman IGF-1 sR (IGF-1 sR), CF (R&D Systems Cat#391-GR) (human) (UniProt P08069). Described as above.
Experiment [34] addresses rHuman EGF R/Fc Chimera, CF (R&D Systems Cat#344-ER) (human) (UniProt P00533). Nature of the experiment: MSD ECL multi-spot assay, antigen spotted on plate, Fab 0.93 uM; blank spot 4760.

rHuman Erythropoietin R/Fc Chimera, CF (R&D Systems Cat#963-ER) (human), sequence (P19235 25-250, change not shown): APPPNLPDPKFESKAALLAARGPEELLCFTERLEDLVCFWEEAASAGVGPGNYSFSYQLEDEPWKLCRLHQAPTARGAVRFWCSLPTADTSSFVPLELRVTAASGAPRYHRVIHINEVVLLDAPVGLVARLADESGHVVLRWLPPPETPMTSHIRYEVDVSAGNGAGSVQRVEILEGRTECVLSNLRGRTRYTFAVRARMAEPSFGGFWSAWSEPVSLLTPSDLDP

As to “Fab VH1-46_IGHD2-15*01_IGHJ2*01 & L12_IGKJ1*01”, the ECL signal is 1820 ECL signal in [1]; 949 ECL signal in experiment [2]; 5400 ECL signal in experiment [3]; 469 ECL signal in experiment [4]; 4560 in [5]; 4310 in [6]. Moreover, the ECL signal in experiment [7] was determined as 5180; in [8] it was 4640; in [9] it was 5280.

Turning to “Fab VH1-46_IGHD3-10*01_IGHJ4*01 & L12_IGKJ1*01”, the ECL signal in [10] was determined as 3820 ECL signal; in experiment [11] it was 5720 ECL signal; in experiment [12], 4080 ECL signal; in [13] it was 6950 ECL signal; in experiment [14], 3930 ECL signal; in [15], 4760 ECL signal. Besides, the ECL signal stood at 2310 ECL signal in [16]; 3860 ECL signal in experiment [17]; 2450 ECL signal in experiment [18]; 4040 ECL signal in experiment [19]; 2300 ECL signal in experiment [20]; 2830 ECL signal in experiment [21]. For the same substance, the ECL signal in experiment [22] came out at 9700 ECL signal; in [23], 13400 ECL signal; in experiment [24], 10900 ECL signal; in experiment [25], 16400 ECL signal; in experiment [26] it was 10700 ECL signal; in [27], 10200 ECL signal. For the same substance, the ECL signal in [28] was 1490 ECL signal; in [29] it was 2670 ECL signal; in [30] it was 1590 ECL signal; in experiment [31], 2720 ECL signal; in experiment [32] it was 1600 ECL signal; in [33], 1750 ECL signal. This substance also registered an ECL signal in experiment [34] of 15600.

Values taken from patent US20120058906A1.
